Literature values in article PMC6605686.

Molecular target: Glu325 (UniProt position 325, TLHMFEVPFLL)
Experiment: kinetics
Conditions: sugar binding to LacY; apparent pK of galactoside affinity

For “Lactose permease (LacY) (Escherichia coli)”, the pKa is given as “∼10.5”.
